Reference: patent US20230310629A1 (Merck KGaA, published 2023)

Biological target: T1, MUC1 on WISH cells (human, UniProt P15941 24-1255)
T1 construct: whole, on cells; WISH cells also carry low levels of EGFR; also called MUC1-expressing cells (WISH)
Test: cell binding on WISH cells

B1: 1993-H02 with an HT186-D11 light chain (anti-MUC1 antibody H02) (antibody, V domains shown)
VH: QMQLVQSEAELKKPGASVKVSCKASGYSFTSHFMHWVRQAPGQGLEWMGWIDPVTGGTKYAQNFQGWVTMTRDTSIRTAYLELSRLRSDDTAMYYCAREARADRGQFDKWGQGTLVTVAS
VL: QSVLTQPPSVSVAPGKTARITCGGNNIGSKSVHWYQQKPGQAPALVIYYGSNRPSGIPERFSGSNSGNTATLTISRVEAGDEADYYCQVWDSSSDWVFGGGTKLTVL
notes: One molecule is used here for both experiments
With B1 the Kd was 23.9 nM.
